The text below walks through data of patent US20100204461 (published 2010).

This data set deals with alpha-thrombin (UniProt P00734;P00734 P00734:328-363,P00734:364-622). Briefly: fluorescence dequenching at 277 nM TAL2, protein ratios 1:1 to 100:1; t1/2 about 30 min at 10-fold excess; 10 mM KCl, 5 mM MgCl2, 12.5 mM Tris acetate pH 6.5.

B1: TAL2 beacon with Dabcyl anchor (structured_DNA)
DNA 1: GGTTGGTTTGGTTGGCAACCTCTGCTACGTG
DNA 2: CACGTAGCAG
modifications: anchor 5' NH2-(CH2)6
With B1, the binding result is reported as “binds”.
